Data as given in paper doi:10.1101/570390.

Molecular target: mature KLK4 from recombinant pro-KLK4 expressed in Sf9 cells, activated with thermolysin (human) (UniProt Q9Y5K2)
Assay: enzyme inhibition assay

UniProt Q9Y5K2, sequence (Q9Y5K2 31-254): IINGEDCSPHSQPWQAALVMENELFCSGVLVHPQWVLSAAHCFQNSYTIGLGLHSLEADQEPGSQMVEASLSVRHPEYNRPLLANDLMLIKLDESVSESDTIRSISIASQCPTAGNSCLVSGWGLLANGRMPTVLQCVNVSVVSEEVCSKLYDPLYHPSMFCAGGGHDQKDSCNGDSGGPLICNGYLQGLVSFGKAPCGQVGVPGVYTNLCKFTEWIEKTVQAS

Row | Substance | Ki [nM]
1 | SFTI-FCQR(Asn14)[1,14], monocyclic (1,14-acyclic backbone, disulfide-bridged) (peptide) | 3.48
2 | SFTI-FCQR(Asn14), bicyclic (peptide) | 0.04
